Experimental data taken from publication PMC7504384, “Insight into the Folding and Dimerization Mechanisms of the N-Terminal Domain from Human TDP-43” (International Journal of Molecular Sciences, 2020).

Assays:
[1] = biological target: the molecule itself; assay: SEC; analytical gel filtration, Superdex 200 Increase 10/300 GL, 4 °C, 5 mM phosphate buffer, 50 mM NaCl, pH 7.4, without DTT; 100 µL of 0.5 mg/mL (58.7 µM) NTD loaded; masses from a calibration curve; also run with 150 mM NaCl without DTT
[2] = biological target: the molecule itself; assay: dynamic light scattering; 0.5 mg/mL (58.7 µM) NTD in 5 mM sodium phosphate buffer, 50 mM NaCl, 1 mM DTT, pH 7.4, 25 °C, no urea; hydrodynamic diameter compared with values calculated for monomer and dimer

B1: N-terminal domain of human TDP-43 (NTD_(1–77)) (domain or fragment, UniProt Q13148 1-77, looked up)
chain: MSEYIRVTEDENDEPIEIPSEDDGTVLLSTVTAQFPGACGLRYRNPVSQCMRGVRLVEGILHAPDAGWGNLVYVVNY
notes: devoid of any tag; calculated mass 8.53 kDa; Cloning, expression and purification are told only in the Supplementary Materials; also called NTD TDP-43; wild-type protein; source: purified as described in the Supplementary Materials (>95% pure)
stoichiometry N [1]: 4 | stoichiometry N [2]: 2
